The values below come from the supplement of paper PMC10567573.

The nature of this data set: protein stability index of a GFP-peptide fusion (GPS, HEK-293T) (PSI 1-6); higher = more stable.
Where [1] appears, read: treatment: DMSO, c terminus: a fixed tail appended.
[2] abbreviates: treatment: MLN4924 1 uM, 8 h, c terminus: a fixed tail appended.
[3] abbreviates: treatment: DMSO, c terminus: native.
Where [4] appears, read: treatment: MLN4924 1 uM, 8 h, c terminus: native.

± gives the standard deviation.
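Note: 24-mer peptide tiles fused after GFP, lentivirally expressed, FACS-sorted into six equal bins by GFP/DsRed ratio, decoded by Illumina sequencing, PSI is the read-weighted mean bin number.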

Consider HFSSIPDAFWWAVVSMTTVGYGDM [KCNA1], for which the protein stability index reads like this: under setting [1], 3.56 ± 0.34; under setting [2], 3.12 ± 0.29.

HHLGSGSGAGGTGGPAGQAGRGGA [MYOZ1]: the protein stability index worked out at 4.9 ± 0.35 under setting [1] and 5.01 ± 0.33 under setting [2].

Take HKRISAFRALQHSYLHKDEGNPE [CDK4]: the protein stability index under setting [3] worked out at 4.15 ± 0.26 and the protein stability index under setting [4] was 4.04 ± 0.47.

Regarding HKRPHVDFFLEVVSQWYELVVFTA [CTDNEP1], the protein stability index came to 3.06 ± 0.76 under setting [1] and 2.77 ± 1.2 under setting [2].

HLGKEQSRRDDLEALGHMFMYFLR [CSNK1G1]: the protein stability index by setting is: under setting [1], 2.61 ± 0.24; under setting [2], 2.25 ± 0.26.

For the sequence HLIRHQITHTREEQPHGRSRRREQ [ZNF8], the protein stability index is, setting by setting: under setting [1], 4.57 ± 0.13; under setting [2], 4.75 ± 0.051.

As for HMEALEIAANLENKATNTDHLTTV [C8orf76], the protein stability index reads like this: under setting [1], 4.76 ± 0.18; under setting [2], 4.78 ± 0.23.

Turning to HMSLEKDIAAMTNSLFIDRQKCMA [TEKT4], the protein stability index reads like this: under setting [1], 3 ± 0.18; under setting [2], 3.02 ± 0.23.

Regarding HPEVKCVGSVALTALVTVSSEEFE [C8orf76], the protein stability index reads like this: under setting [1], 3.27 ± 0.19; under setting [2], 3.31 ± 0.52.

With HQPPQAGAGDVVLLQRELAQEDSL [LYSMD4], the protein stability index is, setting by setting: under setting [1], 5.09 ± 0.13; under setting [2], 5.04 ± 0.15.

HQRSSSESYTQSFQSRKPFFSWW [PI4K2A]: the protein stability index by setting is: under setting [3], 3.41 ± 0.27; under setting [4], 3.7 ± 0.3.

HRKRGSQPPDMASALTDRTSRAPS [RSPH3]: the protein stability index was determined as 4.89 ± 0.17 under setting [1] and 4.95 ± 0.18 under setting [2].

As for HSIALSTFASLIGPFGGFFASGFK [CDS1], the protein stability index by setting is: under setting [1], 2.57 ± 0.61; under setting [2], 2.64 ± 0.69.

Take HVAPLLAAAGLHASPMSADRVVAF [NR2F2]: the protein stability index reads like this: under setting [1], 2.27 ± 0.43; under setting [2], 2.24 ± 0.27.

Consider HWALRVTPGLGVVAVLLLFLVVRE [SPNS1], for which the protein stability index was 2.83 ± 0.47 under setting [1] and 2.79 ± 0.59 under setting [2].

HWNGRHKPWDFPSVHNDLWESWFV [GLT8D2] registered a protein stability index under setting [1] of 2.28 ± 0.58 and a protein stability index under setting [2] of 2.54 ± 0.52.

Turning to IALVENIPEGLNYSENAPFHLSLF [PLD5], the protein stability index reads like this: under setting [1], 2.2 ± 0.83; under setting [2], 2.25 ± 0.24.

With IDEVLLHQDVDLVCINLPPPLTRQ [GFOD1], the protein stability index turned out to be 2.83 ± 0.38 under setting [1] and 2.98 ± 0.43 under setting [2].

IDNARLAADDFRLKYENELALRQG [KRT15]: the protein stability index under setting [1] worked out at 4.24 ± 0.28 and the protein stability index under setting [2] stood at 4.28 ± 0.45.

Turning to IDYKTTTILLDGRRVRLELWDTSG [RAB40C], the protein stability index by setting is: under setting [1], 2.25 ± 0.61; under setting [2], 2.21 ± 0.26.

As to IENYKKQTRNGLGKDHEILRRRIE [FUT8], the protein stability index by setting is: under setting [1], 3.67 ± 0.24; under setting [2], 3.87 ± 0.24.

In the case of IFAWNKWIDIKQFVWYTPPTFMIA [STEAP1], the protein stability index is, setting by setting: under setting [1], 2.97 ± 1.2; under setting [2], 2.95 ± 0.64.

As for IFCLHGGLSPSIDTLDHIRALDRL [PPP2CA], the protein stability index reads like this: under setting [1], 2.29 ± 0.59; under setting [2], 2.21 ± 0.17.

Turning to IFGASSVDFSLSGRLLFAGYNDYT [GNB5], the protein stability index reads like this: under setting [1], 2.6 ± 0.63; under setting [2], 2.12 ± 0.49.

For the sequence IFHSRTSLQKLSTKLSAQSAQYSQ [FCHSD1], the protein stability index by setting is: under setting [1], 2.91 ± 0.17; under setting [2], 2.98 ± 0.34.

Turning to IFTKKLPHPDLPAEEKEQLLHNDE [USP39], the protein stability index came out at 5 ± 0.16 under setting [1] and 5.03 ± 0.1 under setting [2].

Regarding IGPPSAAAIFKIYLSCLEELMKCQ [TRIP13], the protein stability index reads like this: under setting [1], 2.16 ± 0.31; under setting [2], 2.21 ± 0.34.

Regarding IGSCVTNPCGPRSRCGPCNTFGY [KRT33B], the protein stability index under setting [3] turned out to be 2.9 ± 0.28 and the protein stability index under setting [4] is 2.97 ± 0.34.

IHQETVSKNGNGLKNTPRFKRRRV [PCMTD2]: the protein stability index reads like this: under setting [1], 4.41 ± 0.27; under setting [2], 4.63 ± 0.27.

Take IINDTYSEVKEELAGQKDELQLSD [PKD2L1]: the protein stability index is, setting by setting: under setting [1], 5.35 ± 0.23; under setting [2], 5.28 ± 0.22.

As to IKEQLIQEGLLDRCVSFQARFAEK [HDAC6], the protein stability index runs as follows: under setting [1], 2.81 ± 0.19; under setting [2], 2.73 ± 0.36.

In the case of IKRLVGSDQETLRIHERLVAGSLA [SLC25A25], the protein stability index is, setting by setting: under setting [1], 2.74 ± 0.31; under setting [2], 2.62 ± 0.18.

Turning to ILPKELQGWVREHCPESGEEAVIL [ZSCAN9], the protein stability index reads like this: under setting [1], 2.74 ± 0.35; under setting [2], 2.95 ± 0.47.

With INPFTPDSLLLHSSGQCRRRKRTY [WEE1], the protein stability index by setting is: under setting [1], 3.62 ± 0.4; under setting [2], 3.83 ± 0.41.

As for IQNSDNDLPVVQGSSSFSLKGYPS [TRIM29], the protein stability index amounted to 3.91 ± 0.29 under setting [1] and 4.07 ± 0.2 under setting [2].

The sequence IQSWDINSRRNINYRSFEPILRLL [ZER1] had a protein stability index under setting [1] of 2.31 ± 0.099 and a protein stability index under setting [2] of 2.41 ± 0.21.

Regarding IRKTVKRLRKHQHVGDFARDLAAR [ELOA2], the protein stability index is, setting by setting: under setting [1], 3.6 ± 0.23; under setting [2], 3.69 ± 0.23.

With IRMIVRGTLGSCSSSSECLEDSTM [PLK2], the protein stability index is, setting by setting: under setting [1], 2.3 ± 0.3; under setting [2], 2.25 ± 0.12.

With IRNSRPLVKKVEEDEAGGRFVAFS [UFD1], the protein stability index is, setting by setting: under setting [1], 4.11 ± 0.15; under setting [2], 4.05 ± 0.21.

As to IRQVLQGLDYLHSKCKIIHTDIKP [SRPK2], the protein stability index under setting [1] was found to be 2.35 ± 0.44 and the protein stability index under setting [2] stood at 2.22 ± 0.23.

Take IRVMVHGRNHTPFLGHHSFSVRPG [SCNN1D]: the protein stability index runs as follows: under setting [1], 2.55 ± 0.24; under setting [2], 2.85 ± 0.88.

As to ISDFGRQQLLPPFPSLHQSLPQNQ [EHMT1], the protein stability index amounted to 3.45 ± 0.14 under setting [1] and 3.28 ± 0.23 under setting [2].

As for ISEAQLKDRETSKVIYDFIEKTGG [WASL], the protein stability index came to 3.42 ± 0.13 under setting [1] and 3.67 ± 0.15 under setting [2].

The sequence ISIVIFCLETLPEFRDDRDLVMAL [KCNA4] displayed a protein stability index under setting [1] of 3.04 ± 0.81 and a protein stability index under setting [2] of 2.84 ± 0.68.

The sequence ISLAKGPPGPKGDQGDEGKEGRPG [SCARA5] registered a protein stability index under setting [1] of 5.24 ± 0.26 and a protein stability index under setting [2] of 5.485 ± 0.034.

In the case of ISNIDTTIEGTSDDLTVVDAASLR [MFF], the protein stability index by setting is: under setting [1], 5.09 ± 0.27; under setting [2], 4.82 ± 0.56.

For ISQEEFARQLQLSDPQTVAGAFGY [LPCAT4], the protein stability index under setting [1] was 3.41 ± 0.43 and the protein stability index under setting [2] is 3.09 ± 0.41.

ITQSWQVSVRVQPRGRAHLLPNPY [C22orf15]: the protein stability index was 2.59 ± 0.83 under setting [1] and 3.36 ± 0.85 under setting [2].

As for ITVTQSHLVIQNLFEGMIWFLVPI [CDS1], the protein stability index stood at 3.25 ± 0.45 under setting [1] and 3.24 ± 0.34 under setting [2].

Consider IVVHCSAGIGRTGTFCSLDICLAQ [PTPN9], for which the protein stability index by setting is: under setting [1], 3.85 ± 1; under setting [2], 3.45 ± 0.19.

In the case of IVWNKKGKKVSNQRFEVIEFDDGS [PTPRD], the protein stability index amounted to 3.31 ± 0.18 under setting [1] and 3.15 ± 0.062 under setting [2].

For IYRKREEKRNAGNAVRSAMKSEEQ [KMT5A], the protein stability index by setting is: under setting [1], 4.47 ± 0.17; under setting [2], 4.39 ± 0.25.

In the case of KACNKAVAGEFSEPVTLETPAFMF [FSD1], the protein stability index is, setting by setting: under setting [1], 2.84 ± 0.18; under setting [2], 2.98 ± 0.33.

With KAQLPRRESERRNHSLARHADILA [FBXO28], the protein stability index amounted to 3.85 ± 0.11 under setting [1] and 3.96 ± 0.14 under setting [2].

Regarding KARKTYERLVAQFPSSGRFWKLYI [CSTF3], the protein stability index reads like this: under setting [1], 2.57 ± 0.39; under setting [2], 2.44 ± 0.35.

With KASGKNKHFKVQLVDNVYCIGQRR [NCK2], the protein stability index is, setting by setting: under setting [1], 3.06 ± 0.23; under setting [2], 3.2 ± 0.16.

Consider KEAVQNERDRISTRRSSYEDSSLP [HNF4A], for which the protein stability index is 5.07 ± 0.31 under setting [1] and 5.14 ± 0.25 under setting [2].

For KEQEETIQRIDENVLGAQLDVEAA [STX5], the protein stability index reads like this: under setting [1], 5.52 ± 0.22; under setting [2], 5.4 ± 0.34.

For the sequence KFLASHFPNRTDQQCQYRWLRVLN [MYBL2], the protein stability index is, setting by setting: under setting [1], 2.19 ± 0.46; under setting [2], 2.2 ± 0.29.

In the case of KFSPDGKYVVSGFDVDHGICIMDA [WDR88], the protein stability index is, setting by setting: under setting [1], 2.69 ± 0.21; under setting [2], 3.13 ± 0.49.

Regarding KGEYEVAEGIGSTVFRAILDYYKT [BTBD10], the protein stability index by setting is: under setting [1], 2.43 ± 0.4; under setting [2], 2.35 ± 0.41.

Regarding KGGISETRIEKRIVITGDADIDHD [EPB41L3], the protein stability index turned out to be 5.31 ± 0.2 under setting [1] and 5.16 ± 0.51 under setting [2].

With KGSSELGFPRVAPEDEVIVNQYVI [RNF208], the protein stability index runs as follows: under setting [1], 2.8 ± 0.44; under setting [2], 2.64 ± 0.36.

In the case of KHSNSPPLVTPPQSPVSPQPPAIT [SMTNL2], the protein stability index came out at 4.82 ± 0.15 under setting [1] and 4.92 ± 0.15 under setting [2].

In turn, KISGGPRISYPLLHEWALREGEE [MAGEA6] registered a protein stability index under setting [3] of 2.68 ± 0.52 and a protein stability index under setting [4] of 3.02 ± 0.65.

Take KKAEKKLEENPYDLDAWSILIREA [CSTF3]: the protein stability index by setting is: under setting [1], 3.19 ± 0.36; under setting [2], 3.26 ± 0.41.

Consider KKDKCGRTPLHYAAANCHFHCIET [ANKRD44], for which the protein stability index came to 2.5 ± 0.096 under setting [1] and 2.63 ± 0.29 under setting [2].

For the sequence KKDTLTEEETQFYISETVLAIDAI [STK38L], the protein stability index was found to be 3.85 ± 0.3 under setting [1] and 3.97 ± 0.15 under setting [2].

In the case of KKFLTLGSKFRYSGRTQAQTRRAS [EPB41L3], the protein stability index is, setting by setting: under setting [1], 3.27 ± 0.61; under setting [2], 3.49 ± 0.41.

Sequence KLATQHKQLISQTKKKQWCYNCEE [ZMYND11] displayed a protein stability index under setting [1] of 3.48 ± 0.4 and a protein stability index under setting [2] of 3.8 ± 0.23.

Regarding KLFCIPVHGIRSVGTAAVNMCLVA [IMPA1], the protein stability index amounted to 2.4 ± 0.8 under setting [1] and 2.26 ± 0.85 under setting [2].

For the sequence KLFDDCTQQFKAEKLKEKLKMKER [PPP2R5C], the protein stability index under setting [1] is 3.43 ± 0.14 and the protein stability index under setting [2] came out at 3.71 ± 0.15.
